Assay results reported in PMC9953004, “Scandium-44 Radiolabeled Peptide and Peptidomimetic Conjugates Targeting Neuropilin-1 Co-Receptor as Potential Tools for Cancer Diagnosis and Anti-Angiogenic Therapy” (Biomedicines, 2023).
Like-named read-outs stand apart in the source and are kept apart here. Where a SMILES comes first, the peptide text is derived from it. Side-chain parts run from the residue outwards. [ ]: non-standard residue; d: D form. The star is where a group is joined. DOTA = O=C(O)CN1CCN(CC(=O)O)CCN(CC(=O)*)CCN(CC(=O)O)CC1; hArg = N=C(N)NCCCC[C@H](N)C(=O)O; Dab = NCC[C@H](N)C(=O)O; Ahx = NCCCCCC(=O)O

How the values were obtained:
[1] = pH 7.4; cited from earlier work
physchem = assay type: physicochemical; settings: for logP ± SD: pH 7.4
Procedure: The lipophilicity value, defined as the decimal logarithm (logP) of the partition coefficient (P), was tested in the system of two immiscible (but saturated with each other) phases: 0.1 M PBS solution, pH 7.4, and n-octanol, in three independent experiments. Partition coefficient was determined as a ratio of radioactivity of the organic (n-octanol) and aqueous (PBS solution) phases and was shown as the mean ± SD. The lipophilicity test was carried out as follows: the tested radiocompound dissolved in 10–20 µL of PBS was incubated and intensively mixed in an equal amount of these two phases. After centrifugation, radioactivity of appropriate amounts of the separated organic (500 µL) and aqueous (100 µL) phases were measured on the Wizard gamma counter. Differences in the volume of phases taken for measurement resulted from the very low radioactivity of organic phases and were included in the calculations. Additionally, to confirm the stability of the studied radiocompounds during the experiment, the RP-HPLC analyses of the aqueous phase were performed after each lipophilicity test.

[2] = assay type: in vitro ADME, human
Procedure: (§1) Radioconjugate stability tests in 0.1 M PBS solution, 1 mM cysteine (Cys) solution, 1 mM histidine (His) solution and human serum (HS) were performed under rigorous conditions according to the procedure described in detail in our previous paper. In brief, isolated radioconjugates were dissolved in 50 µL PBS and appropriate volume of Cys, His and HS solution and then incubated at 37 °C. After the specified incubation time (depending on the half-life of a given radionuclide), which was up to 4–8 h for the ^44Sc-radiocompounds, 4 h for the ^68Ga-radiocompounds and about 6–14 days for the ^177Lu-radiocompounds, aliquots of solution were withdrawn from the mixture and the composition of the solution was analyzed on RP-HPLC in System 3 or 4 with gamma detection. The concentrations of Cys and His solutions were about 1000 times higher than that of the studied radiocompound. In the case of the radioconjugate stability study in HS, the concentration of the radiocompound was a maximum of 2–25 nmol/mL in 100% human serum. After incubation, the protein components were precipitated with a 2.5-fold volume excess of ethanol prior to RP-HPLC analysis, and then both the supernatant and precipitate radioactivity were measured with a Wizard gamma counter. The percentage of radioactivity remaining in the supernatant and bound by the precipitated serum protein components was calculated as the ratio of the radioactivity of the supernatant or the precipitate, respectively, to the sum of the radioactivity of the supernatant and the precipitate.

[3] = assay type: physicochemical; settings: pH 7.4
Procedure: as §1

Row | Compound | logP ± SD [1] | logP ± SD (physchem) | stability in human serum [2] | stability in PBS buffer [3] | logP (physchem; pH 7.4, logP ± SD)
1 | [^177Lu]Lu-DOTA-Ahx-A7R [^177Lu-1] | −3.40 ± 0.14 |  |  |  | 
2 | [^68Ga]Ga-DOTA-Ahx-A7R [^68Ga-1] | −3.92 ± 0.03 |  |  |  | 
3 | [^177Lu]Lys(hArg)-Dab(Ahx-DOTA-Lu)-Pro-Arg [^177Lu-2] | −3.75 ± 0.08 |  |  |  | 
4 | CC(C)C[C@H](NC(=O)[C@H](Cc1c[nH]c2ccccc12)NC(=O)[C@@H](NC(=O)[C@H](C)NC(=O)[C@@H](N)CCCCNC(=O)CN1CCN(CC(=O)O)CCN(CC(=O)O)CCN(CC(=O)O)CC1)[C@@H](C)O)C(=O)N1CCC[C@H]1C(=O)N1CCC[C@H]1C(=O)N[C@@H](CCCNC(=N)N)C(=O)O [^44Sc-1bis, [^44Sc]Lys(DOTA-Sc)-A7R, metal not drawn] (H-K(DOTA)ATWLPPR-OH) |  | −3.56 ± 0.06 | insufficient stability | complete stability | 
5 | CC(C)C[C@H](NC(=O)[C@H](Cc1c[nH]c2ccccc12)NC(=O)[C@@H](NC(=O)[C@H](C)NC(=O)[C@@H](N)CCCCNC(=O)CN1CCN(CC(=O)O)CCN(CC(=O)O)CCN(CC(=O)O)CC1)[C@@H](C)O)C(=O)N1CCC[C@H]1C(=O)N1CCC[C@H]1C(=O)N[C@@H](CCCNC(=N)N)C(=O)O [^68Ga-1bis, [^68Ga]Lys(DOTA-Ga)-A7R, metal not drawn] (H-K(DOTA)ATWLPPR-OH) |  | −4.18 ± 0.07 | insufficient stability | complete stability | 
6 | N=C(N)NCCCC[C@H](N)C(=O)NCCCC[C@H](N)C(=O)N[C@@H](CCNC(=O)CCCCCNC(=O)CN1CCN(CC(=O)O)CCN(CC(=O)O)CCN(CC(=O)O)CC1)C(=O)N1CCC[C@H]1C(=O)N[C@@H](CCCNC(=N)N)C(=O)O [^44Sc-2, [^44Sc]Sc-DOTA-Ahx-K4R, metal not drawn] (H-K(hArg)[Dab]([Ahx-DOTA])PR-OH) |  |  | insufficient stability | complete stability | -2.57 ± 0.02
7 | [^68Ga]Lys(hArg)-Dab(Ahx-DOTA-Ga)-Pro-Arg [^68Ga-2] | −4.57 ± 0.05 |  |  |  | 
